Columns and labels:
purified protein = substrate: NC(=O)c1ccc[n+]([C@@H]2O[C@H](COP(=O)(O)O)[C@@H](O)[C@H]2O)c1; assay: purified protein; format: biochemical, Agrobacterium fabrum; settings: 50 mM sodium phosphate pH 7.5, 37 °C
[1] = biological target: the molecule itself; assay: SEC; gel filtration on Superdex 200 10/300 GL of the purified enzyme; about 41 kDa against about 19 kDa by SDS-PAGE

| Protein | Km (purified protein) [µM] | kcat (purified protein) [s⁻¹] | kcat/Km (purified protein) [M⁻¹ s⁻¹] | stoichiometry N [1] |
| --- | --- | --- | --- | --- |
| AtCinA (NMN deamidase) (Agrobacterium fabrum str. C58) (protein, full length (169 residues, synthetic 510 bp gene), C-terminal His tag (pET24b), E. coli Rosetta 2(DE3); about 19 kDa subunit, 41 kDa homodimer) MSLFPGDIEELARRIITDFTPLGLMVSTAESCTGGLIAGALTEIAGSSAVVDRGFVTYTNDAKRDMLGVGTETLTTFGAVSRQTALQMAHGALYRSRANFAVAVTGIAGPGGGSAEKPVGLVHLATKARNGNVLHHEMRYGDIGRTEIRLATVRTALEMLIALNQAGSV | 24 ± 2 | 8.7 ± 0.2 | 362000 | – |
| Agrobacterium tumefaciens nicotinamide mononucleotide (NMN) deamidase (enzyme, NMN deamidase CinA of Agrobacterium tumefaciens, UniProt A9CJ26, 169 amino acids; 510 bp synthetic gene cloned between NheI and XhoI of pET24b; Cloning at the NheI and XhoI sites may add a few vector residues; also called AtCinA; CinA) MSLFPGDIEELARRIITDFTPLGLMVSTAESCTGGLIAGALTEIAGSSAVVDRGFVTYTNDAKRDMLGVGTETLTTFGAVSRQTALQMAHGALYRSRANFAVAVTGIAGPGGGSAEKPVGLVHLATKARNGNVLHHEMRYGDIGRTEIRLATVRTALEMLIALNQAGSV | – | – | – | 2 |

Reference: paper PMC5384747, “Characterization and mutational analysis of a nicotinamide mononucleotide deamidase from Agrobacterium tumefaciens showing high thermal stability and catalytic efficiency” (PLoS ONE, 2017)
